Laboratory results as given in publication doi:10.1101/2022.01.09.475535 (bioRxiv, 2022).

T1: SF3B1 ULM5 peptide (residues 333-351), wild type (human, UniProt O75533-1 333-351)
T1 peptide: KRKSRWDETPASQMGGSTP


Target: T1, SF3B1 ULM5 peptide (residues 333-351), …
Test: ITC

fold increase of affinity against the ULM5 peptide with the longer N-terminus [fold] | fold decrease of affinity against the wild-type U2AF2 UHM [fold] | Binder
2 |  | U2AF2 UHM (U2AF homology motif domain of U2AF2) (domain or fragment) TEVLCLMNMVLPEELLDDEEYEEIVEDVRDECSKYGLVKSIEIPRPVDGVEVPGCGKIFVEFTSVFDCQKAMQGLTGRKFANRVVVTKYCDPDSYHRRDFW
 | 4 | U2AF2 UHM K453A (domain or fragment) TEVLCLMNMVLPEELLDDEEYEEIVEDVRDECSKYGLVKSIEIPRPVDGVEVPGCGKIFVEFTSVFDCQKAMQGLTGRAFANRVVVTKYCDPDSYHRRDFW
